The subject of assay [1] is DU145 cells. In words: FACS binding to cell lines. It counts as cell-based, human. From the text:
Clearly, mAb806 and mAb175 can recognize only a small proportion of the EGFR on cells in the presence of an autocrine stimulation loop.

For assay [2], the system named is DU145 xenografts. In words: established xenograft model. The format is in vivo, nude mice. The conditions noted are these: day 67; 1 mg i.p. The source says: Xenografts were allowed to establish for 18 days before therapy commenced (3 times a week for 3 weeks on days indicated). At this time the average tumor volume was 90 mm^3 (FIG. 68D).
Assay [3] addresses T1, Peptide C: LEEKKGNYVVTDH(K-Biot)-OH (Homo sapiens, UniProt P00533, DELINS30-297G).
T1 construct: purchased Biosource, Camarillo, CA; host or cells: synthetic
In words: BIAcore, immobilized Peptide C. It counts as binding. The conditions noted are these: mAbL8A4 even at 6.25 nM; mAb806 up to 100 nM (highest tested). The procedure: Peptide C was immobilized on a Streptavidin microsensor chip at a surface density of 350RU (+/−30RU). Serial dilutions of mAbs were tested for reactivity with the peptide. Blocking experiments using non-biotinylated peptide were performed to assess specificity.
For orientation: In SPR one partner is held on a chip, and binding of the other changes the refractive index at the surface.

The test system of assay [4] is U87MG brain xenografts. In words: systemic treatment of intracranial xenografts. Also noted: species or system nude mice. The conditions noted are these: mouse, in vivo.
Experimental: U87MG.ΔEGFR cells (1×10^5) or 5×10^5 LN-Z308.ΔEGFR, A1207.ΔEGFR, U87MG, U87MG.DK, and U87MG.wtEGFR cells in 5 μl of PBS were implanted into the right corpus stratum of nude mice brains as described previously (Mishima et al. (2000) A peptide derived from the non-receptor binding region of urokinase plasminogen activator inhibits glioblastoma growth and angiogenesis in vivo in combination with cisplatin. Proc. Natl. Acad. Sci. U.S.A. 97, 8484-8489).
Assay [5] has as its system xenograft A431. In words: immunohistochemistry of xenograft sections. Further details: species or system human. On the procedure: (§1) Xenografts were excised and bisected. One half was fixed in 10% formalin/PBS before being embedded in paraffin. Four micron sections were then cut and stained with haematoxylin and eosin (H&E) for routine histological examination. The other half was embedded in Tissue Tek® OCT compound (Sakura Finetek, Torrance, CA), frozen in liquid nitrogen and stored at −80° C. Thin (5 micron) cryostat sections were cut and fixed in ice-cold acetone for 10 min followed by air drying for a further 10 min. Sections were blocked in protein blocking reagent (Lipshaw Immunon, Pittsburgh U.S.A.) for 10 min and then incubated with biotinylated primary antibody (1 mg/ml), for 30 min at room temperature (RT). All antibodies were biotinylated using the ECL™ protein biotinylation module (Amersham, Baulkham Hills, Australia), as per the manufacturer's instructions. After rinsing with PBS, sections were incubated with a streptavidin horseradish peroxidase complex for a further 30 min (Silenus, Melbourne, Australia). Following a final PBS wash the sections were exposed to 3-amino-9-ethylcarbozole (AEC) substrate (0.1 M acetic acid, 0.1 M sodium acetate, 0.02 M AEC (Sigma Chemical Co., St Louis, MO)) in the presence of hydrogen peroxide for 30 min. Sections were rinsed with water and counterstained with hematoxylin for 5 min and mounted.
(§2) Bound antibody was detected using the Dako Envision™+HRP detection system as per manufacturer's instructions. Sections were finally rinsed with water, counterstained with hematoxylin and mounted.

Assay [6] deals with xenograft U87MG (native). In words: immunohistochemistry of xenograft sections. Also noted: species or system human. The procedure: as §1, §2

B1: mAb806: murine monoclonal antibody recognizing de2-7 EGFR and amplified EGFR; VH SEQ ID NO:2, VL SEQ ID NO:4 (antibody, listed as Mus musculus, V domains shown)
VH: MRVLILLWLFTAFPGVLSDVQLQESGPSLVKPSQSLSLTCTVTGYSITSDFAWNWIRQFPGNKLEWMGYISYSGNTRYNPSLKSRISITRDTSKNQFFLQLNSVTIEDTATYYCVTAGRGFPYWGQGTLVTVSA
VL: MVSTAQFLAFLLLWFPGARCDILMTQSPSSMSVSLGDTVSITCHSSQDINSNIGWLQQRPGKSFKGLIYHGTNLDDEVPSRFSGSGSGADYSLTISSLESEDFADYYCVQYAQFPWTFGGGTKLEIKR
As for B1, the FACS binding result in assay [1] was “bind to DU145 cells”. This molecule also displayed a mean tumor volume in assay [2] of 605 mm^3. Also, in assay [3], the “reactivity with Peptide C” value was “did not show detectable specific reactivity”. In assay [4], the effect on survival result is recorded as “did not extend survival”. Also, the figures for the immunohistochemical staining entry in assay [5] and in assay [6] were “pos. (predominantly” and “undetectable”, respectively.

(Values after patent US20240117073A1, “METHODS OF TREATING NEOPLASTIC ASTROCYTOMA” (Ludwig Institute for Cancer Research Ltd., priority 2009, published 2024).)
